# Values joined by “and” are separate entries in the source; they are usually repeats but may differ in a detail not shown here. Identical values can stand only once.
# B1: SEQ ID NO: 1: variant of the S. rolfsii lectin amino acid sequence (reported as Rec-2 in WO2010/095143) (protein)
# chain: TYKITVRVYQTNPDAFFHPVEKTVWKYANGGTWTITDDQHVLTMGGSGTSGTLRFHADNGESFTATFGVHNYKRWCDIVTNLAADETGMVINQQYYSQKNREEARERQLSNYQVKNAKGRNFQIVYTEAEGNDLHANLIIG
# Key:
# SH-SY5Y neuronal cells = assay: Cytoprotective effect against MPP+ iodide induced damage, MTT assay; conditions: MPP+ iodide 1 mM
# Method: The Human Neuronal SH-SY5Y Cells were counted using hemocytometer and plated in 96 well plate at a density of 25,000 cells/well and incubated at 37° C. for 24 h. After incubation, cells were treated with recombinant lectin protein having the sequence of SEQ ID NO: 1 at concentrations ranging from 0.001 μg/ml 50 μg/ml for 24 h. After 24 h of treatment, cells were exposed to neurotoxin (MPP+ iodide, 1 mM) for 24 h. Cells treated with MPP+ iodide alone were included as negative control. Untreated cells were included as control. […] After treatment, the cytoprotective effect of SEQ ID NO: 1 on cell viability was assessed by 3-(4,5-dimethythiazol-2-yl)-2,5-diphenyl tetrazolium bromide (MTT) assay: The plate was taken out and 20 μl of 5 mg/ml of MTT 3-(4,5-dimethythiazol-2-yl)-2,5-diphenyl tetrazolium bromide solution was added to all the wells. The SH-SY5Y cells were incubated for 3 h at 37° C. The supernatant was aspirated and 150 μl of DMSO was added to each well to dissolve formazan crystals. The absorbance of each well was read at 540 nm using Synergy HT micro plate reader. The protective effect of the SEQ ID NO: 1 on survival of SH-SY5Y cells against MPP+ iodide induced damage was determined as: The viability of cells was determined as:
# Where, the percentage cytotoxicity corresponding to each treatment was calculated as follows:
# [formula] • X=Absorbance of cells treated with MPP+ iodide/recombinant lectin having SEQ ID NO: 1+MPP+Iodide • R=Absorbance of Control cells (Untreated) • Percentage protection was calculated as:
# [(Absorbance of SEQ ID NO:1+MPP+Iodide)−(Absorbance of MPP+Iodide)/(Absorbance of Untreated)−(Absorbance of MPP+Iodide alone)]*100
# Calbindin D = assay: Parkinson biomarker multiplex analysis/ELISA, MPP+ damaged SH-SY5Y; format: cell-based, human; conditions: MPP + Iodide (2 mM)
# Method: (§1) After overnight incubation as in the previous examples, cells were treated with recombinant lectin protein having SEQ ID NO: 1 at different concentrations ranging from 0.001 μg/ml-1 μg/ml for 24 h for Parkinson disease and 0.01 μg/ml-25 μg/ml for 24 h for Alzheimer's disease. • Parkinson Disease: After 24 h of pre-treatment with recombinant lectin protein having SEQ ID NO: 1, cells were exposed (MPP+) for another 24 h. Cells treated with MPP+Iodide were included as Control. […] The cells treated with Galantamine were included as positive Control.
# (§2) The levels of markers were determined by multiplex analysis as: Cell culture supernatants were diluted (1:2) with Calibrator Diluent. 50 μl of standard or sample was added per well. 50 μl of the microparticle cocktail was added to each well of the microplate and covered with a foil plate sealer. The plate was incubated for 2 hours at room temperature on a horizontal orbital microplate shaker. The plate was washed using a magnetic device designed to accommodate a microplate. Washing was done by applying the magnet to the bottom of the microplate, allowing 1 minute before removing the liquid, filling each well with wash buffer (100 μl) and allowing 1 minute before removing the liquid again. 50 μl of diluted Biotin-Antibody Cocktail was added to each well. Covered the plate with a foil plate sealer and incubated for 1 hour at room temperature on the shaker. Repeated the wash step. 50 μl of diluted Streptavidin-PE was added to each well. The plate was securely covered with a foil plate sealer and incubated for 30 minutes at room temperature on the shaker. Repeated the wash step. The microparticles were resuspended by adding 100 μl of Wash Buffer to each well. The plate was incubated for 2 minutes on the shaker and read within 90 minutes using Magpix® multiplex machine. Levels of biomarkers for Parkinson's and Alzheimer's disease were estimated using Magpix® multiplex machine.
# (§3) For Parkinson's the percent modulation in each sample was determined as follows:
# (§4) [{Concentration of biomarkers(pg/ml) in SEQ ID NO:1+MPP+Iodide treated cells)−Concentration of biomarkers(pg/ml) in Control cells(MPP+Iodide alone treated)}/Concentration of biomarkers(pg/ml) in Control cells(MPP+Iodide alone treated)]*100
# Dopamine = assay: as above; format: cell-based, human; conditions: MPP + Iodide (2 mM)
# Method: as §1, §2, §3, §4
# ICAM1/CD54 = assay: as above; format: cell-based, human; conditions: MPP + Iodide (2 mM)
# Method: as §1, §2, §3, §4
# Park7/DJ-1 = assay: as above; format: cell-based, human; conditions: MPP + Iodide (2 mM)
# Method: as §1, §2, §3, §4
# S100b = assay: as above; format: cell-based, human; conditions: MPP + Iodide (2 mM)
# Method: as §1, §2, §3, §4
# Serotonin = assay: as above; format: cell-based, human; conditions: MPP + Iodide (2 mM)
# Method: as §1, §2, §3, §4
# α-Synuclein = assay: as above; format: cell-based, human; conditions: 0.001 μg/mL to 1 μg/mL, MPP+ iodide
# Method: as §1, §2, §3, §4
# [1] = test system: Brain NGF (Nerve Growth Factor); assay: Brain biomarker ELISA, scopolamine induced dementia; format: in vivo, Mus musculus (Swiss Albino); conditions: for brain nerve growth factor (NGF) Mean: scopolamine 2.5 mg/kg i.p., mice
# Method: Healthy male Swiss albino mice (n=48) were selected and randomized based on body weight (n=8 per Group) into 6 groups as mentioned in table no-1. The control group G1 was treated intravenously with vehicle daily till the experiment completion. Group G2 was considered as negative control and treated with vehicle. […] Group G4, G5 &G6 animals were treated with the test item recombinant lectin protein having SEQ ID NO: 1 at the dose of 0.5 mg/kg, 0.25 mg/kg and 0.125 mg/kg, respectively. All the test items were given intravenously (i.v) daily at the dose volume of 5 ml/kg for 14 Days. The body weight was recorded daily throughout the experimental period. […] One hour after the last dose of test items (on Day 14) all the animals were injected with scopolamine hydrobromide at the dose of 2.5 mg/kg, i.p., except the normal control group G1. Passive avoidance test was conducted 30 min after scopolamine injection.
# After passive avoidance test screening models of memory, the animals were sacrificed humanely. The whole brain was carefully removed from the skull and weighed. Brain was dissected into two portions
# 10% w/v brain homogenate (100 mg/mL) was prepared by homogenizing it in ice-chilled phosphate buffer. The homogenate was subsequently centrifuged using a refrigerated centrifuge at 3000 rpm for 10 min, and the supernatant was separated and used for the biochemical estimations.
# Following biomarkers was estimated using ELISA kit as per manufacturer's instruction. • Brain NGF (Nerve Growth Factor), CUSABIO, Catalog No. CSB-E04684m • Acetylcholinesterase, CUSABIO, Catalog No. CSB-E17521m • TNF alpha, CUSABIO, Catalog No. CSB-E04741m
molecule,measurement,setting,value
B1,Percentage Protection,SH-SY5Y neuronal cells; 0.001 μg/mL,58.6%
same,Percentage Viability (w.r.t control),SH-SY5Y neuronal cells; 0.001 μg/mL,85.1%
same,Percentage cytotoxicity,SH-SY5Y neuronal cells; 0.001 μg/mL,14.9%
same,Percentage Protection,SH-SY5Y neuronal cells; 0.01 μg/mL,61.8%
same,Percentage Viability (w.r.t control),SH-SY5Y neuronal cells; 0.01 μg/mL,86.3%
same,Percentage cytotoxicity,SH-SY5Y neuronal cells; 0.01 μg/mL,13.7%
same,Percentage Protection,SH-SY5Y neuronal cells; 0.05 μg/mL,68.8%
same,Percentage Viability (w.r.t control),SH-SY5Y neuronal cells; 0.05 μg/mL,88.8%
same,Percentage cytotoxicity,SH-SY5Y neuronal cells; 0.05 μg/mL,11.2%
same,Percentage Protection,SH-SY5Y neuronal cells; 0.1 μg/mL,52.6%
same,Percentage Viability (w.r.t control),SH-SY5Y neuronal cells; 0.1 μg/mL,83%
same,Percentage cytotoxicity,SH-SY5Y neuronal cells; 0.1 μg/mL,17%
same,Percentage Protection,SH-SY5Y neuronal cells; 1 μg/mL,40.2%
same,Percentage Viability (w.r.t control),SH-SY5Y neuronal cells; 1 μg/mL,78.8%
same,Percentage cytotoxicity,SH-SY5Y neuronal cells; 1 μg/mL,21.2%
same,Percentage Protection,SH-SY5Y neuronal cells; 5 μg/mL,49.6%
same,Percentage Viability (w.r.t control),SH-SY5Y neuronal cells; 5 μg/mL,82.1%
same,Percentage cytotoxicity,SH-SY5Y neuronal cells; 5 μg/mL,17.9%
same,Percentage Protection,SH-SY5Y neuronal cells; 10 μg/mL,85.6%
same,Percentage Viability (w.r.t control),SH-SY5Y neuronal cells; 10 μg/mL,94.9%
same,Percentage cytotoxicity,SH-SY5Y neuronal cells; 10 μg/mL,5.1%
same,Percentage Protection,SH-SY5Y neuronal cells; 25 μg/mL,78.6%
same,Percentage Viability (w.r.t control),SH-SY5Y neuronal cells; 25 μg/mL,92.4%
same,Percentage cytotoxicity,SH-SY5Y neuronal cells; 25 μg/mL,7.6%
same,Percentage Protection,SH-SY5Y neuronal cells; 50 μg/mL,62.1%
same,Percentage Viability (w.r.t control),SH-SY5Y neuronal cells; 50 μg/mL,86.6%
same,Percentage cytotoxicity,SH-SY5Y neuronal cells; 50 μg/mL,13.4%
same,% Change of Biomarkers markers (with respect to Control) Calbindin D,Calbindin D; 0.001 μg/mL,9.7%
same,% Change of Biomarkers markers (with respect to Control) Calbindin D,Calbindin D; 0.01 μg/mL,8.2%
same,% Change of Biomarkers markers (with respect to Control) Calbindin D,Calbindin D; 0.05 μg/mL,1.7%
same,% Change of Biomarkers markers (with respect to Control) Calbindin D,Calbindin D; 0.1 μg/mL,6.6%
same,% Change of Biomarkers markers (with respect to Control) Calbindin D,Calbindin D; 1 μg/mL,−1.6%
same,% Change of Biomarkers markers (with respect to Control) Dopamine,Dopamine; 0.001 μg/mL,50.6%
same,% Change of Biomarkers markers (with respect to Control) Dopamine,Dopamine; 0.01 μg/mL,82.5%
same,% Change of Biomarkers markers (with respect to Control) Dopamine,Dopamine; 0.05 μg/mL,24.7%
same,% Change of Biomarkers markers (with respect to Control) Dopamine,Dopamine; 0.1 μg/mL,28.9%
same,% Change of Biomarkers markers (with respect to Control) Dopamine,Dopamine; 1 μg/mL,22.9%
same,% Change of Biomarkers markers (with respect to Control) ICAM1/CD54,ICAM1/CD54; 0.001 μg/mL,0%
same,% Change of Biomarkers markers (with respect to Control) ICAM1/CD54,ICAM1/CD54; 0.01 μg/mL,−6.2%
same,% Change of Biomarkers markers (with respect to Control) ICAM1/CD54,ICAM1/CD54; 0.05 μg/mL,−28.1%
same,% Change of Biomarkers markers (with respect to Control) ICAM1/CD54,ICAM1/CD54; 0.1 μg/mL,−36.3%
same,% Change of Biomarkers markers (with respect to Control) ICAM1/CD54,ICAM1/CD54; 1 μg/mL,−41.3%
same,% Change of Biomarkers markers (with respect to Control) Park7/DJ-1,Park7/DJ-1; 0.001 μg/mL,−2.5%
same,% Change of Biomarkers markers (with respect to Control) Park7/DJ-1,Park7/DJ-1; 0.01 μg/mL,−3.6%
same,% Change of Biomarkers markers (with respect to Control) Park7/DJ-1,Park7/DJ-1; 0.05 μg/mL,−7.1%
same,% Change of Biomarkers markers (with respect to Control) Park7/DJ-1,Park7/DJ-1; 0.1 μg/mL,−10.4%
same,% Change of Biomarkers markers (with respect to Control) Park7/DJ-1,Park7/DJ-1; 1 μg/mL,−12.6%
same,% Change of Biomarkers markers (with respect to Control) S100b,S100b; 0.001 μg/mL,−11%
same,% Change of Biomarkers markers (with respect to Control) S100b,S100b; 0.01 μg/mL,9%
same,% Change of Biomarkers markers (with respect to Control) S100b,S100b; 0.05 μg/mL,−6.7%
same,% Change of Biomarkers markers (with respect to Control) S100b,S100b; 0.1 μg/mL,−6.5%
same,% Change of Biomarkers markers (with respect to Control) S100b,S100b; 1 μg/mL,−11.4%
same,% Change of Biomarkers markers (with respect to Control) Serotonin,Serotonin; 0.001 μg/mL,15.4%
same,% Change of Biomarkers markers (with respect to Control) Serotonin,Serotonin; 0.01 μg/mL,5.1%
same,% Change of Biomarkers markers (with respect to Control) Serotonin,Serotonin; 0.05 μg/mL,6.9%
same,% Change of Biomarkers markers (with respect to Control) Serotonin,Serotonin; 0.1 μg/mL,7.9%
same,% Change of Biomarkers markers (with respect to Control) Serotonin,Serotonin; 1 μg/mL,23.5%
same,modulation of α-Synuclein,α-Synuclein,no significant modulation
same,level of NGF (brain),"[1]; 0.25 mg/kg, scopolamine treated mice",62 µg/mL
same,brain nerve growth factor (NGF) Mean,[1]; G4: 0.5 mg/kg i.v. qdx14,71.6 pg/mL and 71.59 pg/mL
same,brain nerve growth factor (NGF) Mean,[1]; G5: 0.25 mg/kg i.v. qdx14,61.96 pg/mL
same,brain nerve growth factor (NGF) Mean,[1]; G6: 0.125 mg/kg i.v. qdx14,38.62 pg/mL
